Source: the supplement of paper PMC9112550, “Optimization of the antimicrobial peptide Bac7 by deep mutational scanning” (BMC Biology, 2022)

test system: Escherichia coli TOP10; experiment: shrunken log2 fold change of peptide-encoding DNA abundance (4.5 h post-induction vs induction); higher = less antimicrobial activity (less host growth inhibition); details: time post-induction: 4.5 h; library: site-saturation at positions 5, 18, 19, 20
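Note: peptides expressed intracellularly from a pBAD plasmid library in pooled LB shake-flask culture, induced with 0.3% L-arabinose, DNA abundance read by NGS, three biological replicates, DESeq2 with apeglm shrinkage.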

Sequence | shrunken log2 fold change
RRIRNRPPRLPRPRPRPAKNPRP | 0.0221
RRIRNRPPRLPRPRPRPALKPRP | 0.108
RRIRNRPPRLPRPRPRPALYPRP | -0.125
RRIRNRPPRLPRPRPRPAMHPRP | -0.273
RRIRNRPPRLPRPRPRPANTPRP | -0.242
RRIRNRPPRLPRPRPRPAPIPRP | 0.169
RRIRNRPPRLPRPRPRPAPMPRP | 0.237
RRIRNRPPRLPRPRPRPAPPPRP | 0.584
RRIRNRPPRLPRPRPRPAQCPRP | -0.0739
RRIRNRPPRLPRPRPRPAQFPRP | 0.0855
RRIRNRPPRLPRPRPRPAQLPRP | -0.207
RRIRNRPPRLPRPRPRPAQWPRP | 0.525
RRIRNRPPRLPRPRPRPARNPRP | -0.0209
RRIRNRPPRLPRPRPRPATHPRP | 0.224
RRIRNRPPRLPRPRPRPATMPRP | -0.1
RRIRNRPPRLPRPRPRPAVDPRP | 0.0455
RRIRNRPPRLPRPRPRPAVEPRP | -0.0887
RRIRNRPPRLPRPRPRPAVVPRP | 0.251
RRIRNRPPRLPRPRPRPAWKPRP | 0.122
RRIRNRPPRLPRPRPRPAYLPRP | -0.284

Sequence | shrunken log2 fold change
RRIRNRPPRLPRPRPRPCCTPRP | 2.47
RRIRNRPPRLPRPRPRPCEEPRP | -0.0104
RRIRNRPPRLPRPRPRPCEMPRP | 0.019
RRIRNRPPRLPRPRPRPCFFPRP | -0.489
RRIRNRPPRLPRPRPRPCGDPRP | 0.0293
RRIRNRPPRLPRPRPRPCGFPRP | -0.0155
RRIRNRPPRLPRPRPRPCGPPRP | -0.0549
RRIRNRPPRLPRPRPRPCHDPRP | -0.0458
RRIRNRPPRLPRPRPRPCHLPRP | -0.146
RRIRNRPPRLPRPRPRPCISPRP | -0.802
RRIRNRPPRLPRPRPRPCKHPRP | -0.344
RRIRNRPPRLPRPRPRPCMVPRP | -0.69
RRIRNRPPRLPRPRPRPCMYPRP | -0.0592
RRIRNRPPRLPRPRPRPCNEPRP | -0.0138
RRIRNRPPRLPRPRPRPCNLPRP | -0.134
RRIRNRPPRLPRPRPRPCQCPRP | -0.00992
RRIRNRPPRLPRPRPRPCSKPRP | -0.0508
RRIRNRPPRLPRPRPRPCWRPRP | -0.174
RRIRNRPPRLPRPRPRPCYLPRP | -1.19
RRIRNRPPRLPRPRPRPDALPRP | 0.0233

Sequence | shrunken log2 fold change
RRIRNRPPRLPRPRPRPDGAPRP | 0.0931
RRIRNRPPRLPRPRPRPDIQPRP | -0.0597
RRIRNRPPRLPRPRPRPDKIPRP | 0.159
RRIRNRPPRLPRPRPRPDLCPRP | -0.0418
RRIRNRPPRLPRPRPRPDLKPRP | 0.0748
RRIRNRPPRLPRPRPRPDMHPRP | -0.0698
RRIRNRPPRLPRPRPRPDPAPRP | 0.172
RRIRNRPPRLPRPRPRPDPKPRP | -0.00647
RRIRNRPPRLPRPRPRPDPNPRP | -0.488
RRIRNRPPRLPRPRPRPDRAPRP | 0.171
RRIRNRPPRLPRPRPRPDRGPRP | -0.0223
RRIRNRPPRLPRPRPRPDRMPRP | -0.282
RRIRNRPPRLPRPRPRPDRQPRP | -0.0285
RRIRNRPPRLPRPRPRPDSLPRP | 0.0321
RRIRNRPPRLPRPRPRPDTVPRP | -0.0521
RRIRNRPPRLPRPRPRPDWHPRP | -0.394
RRIRNRPPRLPRPRPRPDYLPRP | -0.142
RRIRNRPPRLPRPRPRPDYNPRP | -0.782
RRIRNRPPRLPRPRPRPEAYPRP | 0.0274
RRIRNRPPRLPRPRPRPECPPRP | 0.012
